We go through two molecules from paper PMC8909805, “Anticancer Activity of (S)-5-Chloro-3-((3,5-dimethylphenyl)sulfonyl)-N-(1-oxo-1-((pyridin-4-ylmethyl)amino)propan-2-yl)-1H-indole-2-carboxamide (RS4690), a New Dishevelled 1 Inhibitor” (Cancers, 2022).

Assay [1] concerns the target T1, DVL1 binding to FZD4 (Homo sapiens, UniProt O14640).
T1 construct: host or cells: HEK293
T1 sequence (O14640 1-695): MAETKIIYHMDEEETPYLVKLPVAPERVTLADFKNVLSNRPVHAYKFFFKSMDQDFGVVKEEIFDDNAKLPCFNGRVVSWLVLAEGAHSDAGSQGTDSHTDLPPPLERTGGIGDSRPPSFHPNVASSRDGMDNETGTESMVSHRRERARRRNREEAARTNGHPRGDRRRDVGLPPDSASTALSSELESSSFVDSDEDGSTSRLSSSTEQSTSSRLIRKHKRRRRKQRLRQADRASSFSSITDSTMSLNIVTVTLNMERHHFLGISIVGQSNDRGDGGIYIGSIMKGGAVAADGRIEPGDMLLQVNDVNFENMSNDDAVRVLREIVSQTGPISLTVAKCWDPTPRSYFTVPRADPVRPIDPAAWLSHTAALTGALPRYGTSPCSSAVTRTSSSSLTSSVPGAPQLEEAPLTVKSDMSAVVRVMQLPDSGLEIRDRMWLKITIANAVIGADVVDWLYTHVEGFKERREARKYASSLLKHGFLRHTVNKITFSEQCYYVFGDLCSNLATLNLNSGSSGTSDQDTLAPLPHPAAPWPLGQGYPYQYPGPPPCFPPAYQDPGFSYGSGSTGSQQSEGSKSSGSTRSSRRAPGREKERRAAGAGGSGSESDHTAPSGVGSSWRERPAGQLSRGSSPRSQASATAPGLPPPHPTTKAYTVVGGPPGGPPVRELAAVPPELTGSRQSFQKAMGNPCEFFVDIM
The assay can be described thus: Inhibition of DVL1 (DVL-GFP) recruitment by FZD4 at the plasma membrane of HEK293 cells. It is filed as cell-based. Conditions: HEK293 cells co-transfected with HA-FZD4 and GFP-DVL-1; 24 h treatment; read-out: EC50 ± SD DVL1 Binding Inhibition. As for the experimental part: HEK293 cells were seeded in 96-well tissue culture plates at a density of 5 × 10 ^3/well. After 16–24 h seeding, cells were co-transfected with HA-FZD4-wt (0.04 µg/well) and GFP-tagged DVL-1 (0.04 µg/well) using PEI (0.25 µL/well) in a final volume of 100 µL/well. After 24 h of transfection, the medium was replaced and supplemented with the indicated compounds diluted in culture medium. After 24 h of treatment, cells were fixed in 3.7% formaldehyde freshly diluted in PBS for 30 min at RT, quenched with 0.1 M glycine/PBS for 30 min at RT, and washed with PBS. Samples were observed under a Leica confocal fluorescent microscope. Inhibition of DVL recruitment was measured by counting the percentage of cells losing GFP-DVL-1 localization on the PM. Experiments were performed in triplicate, and the standard deviations are indicated.
The crucial role played by PDZ domains in the spreading of cellular signals and their aberrant activations in many human diseases makes the PDZ domains very attractive targets for drug discovery. […] To identify new DVL1 inhibitors, we followed a virtual screening approach by fixing as the main filter a pharmacophoric model. We speculated that compound 2, the recently reported inhibitor of NHERF1 PDZ1 domain [26], may be able also to bind the DVL PDZ domain. The activity of compound 2 was assayed in HEK293 cells transiently expressing both HA-tagged-FZD4 (HA-FZD4) and the chimeric construct DVL-GFP. In the absence of HA-FZD4, DVL-GFP is localized in punctate intracellular structures known as signalosomes. In the presence of FZD-4 expression, DVL-GFP is recruited on the PM of the cell showing a drastic change in localization. As previously reported, drugs acting as inhibitors of FZD4/DVL binding reduce the amount of DVL-GFP recruited on the PM. […] Thus, we used the information gained from the binding mode of compound 2 to design a pharmacophore model that would lead to the identification of new DVL1 PDZ binders. At the same time, to better distinguish between the inhibitory activities of DVL1 and NHERF1, we added a new query to the pharmacophore model. Actually, comparing the PDZ structures of the studied proteins, we identified a significant difference. The upper part of the carboxylic binding loop was delimited by Tyr24, Ile79 and Val86 for NHERF1, while we observed Leu12, Val75 and Ile81, respectively, for DVL1. […] This peculiar feature of the DVL1 PDZ was included in our pharmacophore model by adding a hydrophobic query to obtain the required selectivity (Figure S1, Supplementary Materials). […] Thus, for each molecule, we obtained 10 conformations, and all of the proposed binding poses (7000 molecules per 10 conformations) were scored by the fitting to the pharmacophore model. […]

Assay [2] deals with HA-tagged FZD4wt (human) (UniProt Q9ULV1).
Chain of HA-tagged FZD4wt (human) (Q9ULV1 37-537): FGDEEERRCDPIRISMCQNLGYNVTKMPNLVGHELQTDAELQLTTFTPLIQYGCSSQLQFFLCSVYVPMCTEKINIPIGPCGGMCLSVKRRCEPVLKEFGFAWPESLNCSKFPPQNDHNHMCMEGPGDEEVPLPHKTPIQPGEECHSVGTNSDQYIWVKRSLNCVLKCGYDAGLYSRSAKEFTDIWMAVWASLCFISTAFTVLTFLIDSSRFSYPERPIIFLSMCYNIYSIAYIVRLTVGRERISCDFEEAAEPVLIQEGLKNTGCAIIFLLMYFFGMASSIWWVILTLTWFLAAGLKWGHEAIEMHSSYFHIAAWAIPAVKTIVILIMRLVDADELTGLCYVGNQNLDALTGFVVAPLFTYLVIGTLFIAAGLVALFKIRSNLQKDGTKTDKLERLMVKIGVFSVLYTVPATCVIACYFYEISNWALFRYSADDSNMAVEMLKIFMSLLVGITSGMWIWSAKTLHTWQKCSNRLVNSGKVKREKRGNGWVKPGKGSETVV

Regarding `O=C(Nc1ccc(CO)cc1)c1[nH]c2ccc(Cl)cc2c1Cc1ccccc1` [Compound 2, 3-benzyl-5-chloro-N-(4-(hydroxymethyl)phenyl)-1H-indole-2-carboxamide, reference compound], the half-maximal effective concentration (EC50) in assay [1] turned out to be 5.1 ± 0.09 µM.

B1: GFP-tagged DVL-1 (natural protein)
chain: MAETKIIYHMDEEETPYLVKLPVAPERVTLADFKNVLSNRPVHAYKFFFKSMDQDFGVVKEEIFDDNAKLPCFNGRVVSWLVLAEGAHSDAGSQGTDSHTDLPPPLERTGGIGDSRPPSFHPNVASSRDGMDNETGTESMVSHRRERARRRNREEAARTNGHPRGDRRRDVGLPPDSASTALSSELESSSFVDSDEDGSTSRLSSSTEQSTSSRLIRKHKRRRRKQRLRQADRASSFSSITDSTMSLNIVTVTLNMERHHFLGISIVGQSNDRGDGGIYIGSIMKGGAVAADGRIEPGDMLLQVNDVNFENMSNDDAVRVLREIVSQTGPISLTVAKCWDPTPRSYFTVPRADPVRPIDPAAWLSHTAALTGALPRYGTSPCSSAVTRTSSSSLTSSVPGAPQLEEAPLTVKSDMSAVVRVMQLPDSGLEIRDRMWLKITIANAVIGADVVDWLYTHVEGFKERREARKYASSLLKHGFLRHTVNKITFSEQCYYVFGDLCSNLATLNLNSGSSGTSDQDTLAPLPHPAAPWPLGQGYPYQYPGPPPCFPPAYQDPGFSYGSGSTGSQQSEGSKSSGSTRSSRRAPGREKERRAAGAGGSGSESDHTAPSGVGSSWRERPAGQLSRGSSPRSQASATAPGLPPPHPTTKAYTVVGGPPGGPPVRELAAVPPELTGSRQSFQKAMGNPCEFFVDIM
In assay [2], B1 came in with an EC50 of the small molecule 2 for inhibition of GFP-DVL-1 recruitment to the plasma membrane by HA-FZD4 in HEK293 cells (percentage of cells losing PM localisation; 'DVL1 Binding Inhibition') of 5.1 µM, an EC50 of the small molecule (R)-1 for inhibition of GFP-DVL-1 recruitment to the plasma membrane by HA-FZD4 in HEK293 cells (percentage of cells losing PM localisation; 'DVL1 Binding Inhibition') of 29.5 µM and an EC50 of the small molecule (S)-1 for inhibition of GFP-DVL-1 recruitment to the plasma membrane by HA-FZD4 in HEK293 cells (percentage of cells losing PM localisation; 'DVL1 Binding Inhibition') of 0.49 µM.
